In the nanobody polyreactivity screen of Harvey et al. (2022):

Test: yeast display, Sf9 membrane polyspecificity reagent, FACS + sequencing; frameworks hold sequencing errors
Outline: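 In a synthetic yeast display library (Saccharomyces cerevisiae BJ5465), nanobody expression was induced with galactose for 36–48 hours. FACS gates were set low and high (top ~1%) using anti-HA fluorescence for expression and streptavidin fluorescence for binding of the Sf9 membrane reagent. Each polyreactivity label is drawn from the gate of origin.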

Sequence | polyreactivity (PSR sort gate)
QVQLVESGGGLVQAGGSLRLSCAASGRTFNKYAMGWYRKAPGKERELVAAINYSGGRTYYADSVKGRFTISRDNAKNTVSLQMNSLKPEDTAVYYCNRDDAWQEYDYWGQGTQVTVSS | low polyreactivity
QVQLVESGGGLVQAGGSLRLSCAASGRTFNNYAMGWYRQAPGKERELVASIRKNGGSTYYADSVKGRFTISRDNAKNTVYLQMNSLKPEDTAVYYCGARYWGISRIFPSKYDYWGQGTQVTVSS | high polyreactivity
QVQLVESGGGLVQAGGSLRLSCAASGRTFNPYAMGWYRQAPGKERELVAVISSIGGSTYADSVKGRFTISRDNAKNTVYLQMNSLKPEDTAVYYCNRATFGQWGGDYWGQGTQVTVSS | high polyreactivity
QVQLVESGGGLVQAGGSLRLSCAASGRTFNRNAMGWYRQAPGKARELVAAISRGGGGTFFADSVKWRFTISRDNAKNTVYLQMNSLKPEDTAFYFCAAVPIAADKANGYDYWGQGTQVTVSS | low polyreactivity
QVQLVESGGGLVQAGGSLRLSCAASGRTFNRYAMGWYRQAPGKERELVAAITRGGSTYYADSVKGRFTISRDNAQNTVYLQMNSLKPEDTAVYYCAKYVYSEGYYWGQGTQVTVSS | high polyreactivity
QVQLVESGGGLVQAGGSLRLSCAASGRTFNRYAMGWYRQAPGKERELVAVITGSGGAGTYYADSVKGRFTISRDNAKNTVYLQMNSLKPEDTAVYYCNAGGGFYGSTVEHDYWGQGTQVTVSS | low polyreactivity
QVQLVESGGGLVQAGGSLRLSCAASGRTFNTYAMGWYRQAPGKERELVAAISRTGASTYYADSVKGRFTISRDNAKNTVYLQMNSLKPEDTAVYYCAADANSGDGYYWGQGTQVTVSS | high polyreactivity
QVQLVESGGGLVQAGGSLRLSCAASGRTFNTYDMGWYRQAPGKERELVAAITSRGGTTYYADSVKGRFTITRDNAKNTVYLQMNSLKPEDTAVSYCAADYYSWDYQYDYDYWGQGTQVTVSS | low polyreactivity
QVQLVESGGGLVQAGGSLRLSCAASGRTFNWYAMGWYRQAPGKERELVAAISSRGGSTYADSVKGRFTISRDNAKNTVYLQMNSLKPEDTAVYYCAARHHGTKYDYWGLGTQVTVSS | low polyreactivity
QVQLVESGGGLVQAGGSLRLSCAASGRTFNYNTMGWYRQAPGKERELVAAINKGGTRTYYADSVKGRFTISRDNAKNTVYLQMKSLNPEDTAVYYCAARIGGGSYWGQVTQVTVSS | high polyreactivity
QVQLVESGGGLVQAGGSLRLSCAASGRTFNYYAMGWYRQAPGKERELVAAISWSGTPTYYADSVKGRFTISRDNAKNTVYLQMNCLKPEDTAVYYCAAYLVSYPRGNYIRYDYWGQGTQVTVSS | low polyreactivity
QVQLVESGGGLVQAGGSLRLSCAASGRTFNYYGMGWYRQAPGKERELVAAISRGGTTNYADSVKGRFTISRDNAKNTVYLQMNSLKPEDTAVYYCAKGRSHWHSYQYVRPNYDYWGQGTQVTVSS | low polyreactivity
QVQLVESGGGLVQAGGSLRLSCAASGRTFPAYAMGWYRQAPGKERELVAAITWSGGRTYYADSVKGRFTISRDNAKNTVYLQMNSLKPEDTAVYYCAAQYRVLWYSYYYWGQGTQVTVSS | high polyreactivity
QVQLVESGGGLVQAGGSLRLSCAASGRTFPAYTMGWYRQAPGKERELVAAISRVGTTYYADSVKGRFTISRDNAKNTGYIQMNSLKPEDTAFYYCNARTWSWSFDYWGQGTLVTVSS | high polyreactivity
QVQLVESGGGLVQAGGSLRLSCAASGRTFPFNVMGWYRQAPGKERELVAAISSGGSTNYADSVKGRFTISRDNAKNTVYLQMNSLKPEDTAVYYCAAYSVYGRYGRTFYYWGQGTQVTVSS | high polyreactivity
QVQLVESGGGLVQAGGSLRLSCAASGRTFPFYAMGWYRPAPGKERELVAAIHSGGITNYADSVKGRFTISRDNAKNTVYLQMNSLKPEDYAVYDCAALTAFYRERGYWGEGTQVTVSS | low polyreactivity

Sequence | polyreactivity (PSR sort gate)
QVQLVESGGGLVQAGGSLRLSCAASGRTFPGYAMGWYRQAPGKERELVASITSRGGITYYADSVKGRFTISRDNAKNTVYLQMNSLKPEDTAVYYCATDFAVTKMEYWGQGTQVTVSS | low polyreactivity
QVQLVESGGGLVQAGGSLRLSCAASGRTFPGYGMGWYRQAPGKERELVAVITSNGGITYYADSVKGRFTISRDNAKNTVYLQMNSLKPEDTAVYYCAAQNVWFYGFWRDYWGQGTQVTVSS | low polyreactivity
QVQLVESGGGLVQAGGSLRLSCAASGRTFPHYAMGWYRQAPGKERELVAAITSGGTTNYADSVKGRFTISRDNEKNTVYLQLNSLKPEDTAVYYCNADMDLDTAWDGFVAYDYWGQGTQVTVSS | low polyreactivity
QVQLVESGGGLVQAGGSLRLSCAASGRTFPIYAMGWYRQAPGKERELVAAITYSGGSTYYADSVKGRFTISRDNAKNTVYLQMNSLKPEDTAVYYCAVDGTKPYWHQRYDYWGQGTQVTVSS | low polyreactivity
QVQLVESGGGLVQAGGSLRLSCAASGRTFPIYAMGWYRQAPGKERELVASITRSGGSTYYADSVKGRFTISRDNAKNTVYLQMNSLKPEDTAVYYCAAAANSYSVYTGKFYYWGQGTQVTVSS | high polyreactivity
QVQLVESGGGLVQAGGSLRLSCAASGRTFPIYAMGWYRQARGKERELVAAITYSGGSTYYADSVKGRFTISRDNAKNTDYLQMNSQKPEDTAVYYCAVDGTKPYWHQRYDYWGQGTQVTGSS | low polyreactivity
QVQLVESGGGLVQAGGSLRLSCAASGRTFPLYDMGWYRQAPGKERELVAAISLSGGRTYYADSVKGRFTISRDNAKNTVYLQMNSLKPEDTAVYYCAARGTLSAQVGIRRYDYWGQGTQVTVSS | low polyreactivity
QVQLVESGGGLVQAGGSLRLSCAASGRTFPPNSMAWYRQAPGKERELVAGITRGGNTYYADSVKGRFTISRDNAKNTVYLQMNSLKPEDTAVYYCAAERRYYSWYWYRVNYCGQGTQVTVSS | high polyreactivity
QVQLVESGGGLVQAGGSLRLSCAASGRTFPPYAMGWYRQAPGKERELVAANSWSGGSTYYADSVKGRFTISRDNAKNTVYLQMNSLKPEDTAVYYCAKATRDRGRYYYWGQGTQVTVSS | high polyreactivity
QVQLVESGGGLVQAGGSLRLSCAASGRTFPPYAMGWYRQAPGKERELVASIRRGGSTHYADSVKGRFTISRDNAKNTVYLQMNSLKPEDTAVYYCNADVIFGYTHYNYWGQGTQVTVSS | high polyreactivity
QVQLVESGGGLVQAGGSLRLSCAASGRTFPRNAMGWYRQAPGKERELVARINWSGGSTTYADSVKGRFTISRDNAKNTVYLQMNSLKPEDTAVYYCNARPYTSSFTKYGPSGYWGQGTQVTVSS | high polyreactivity
QVQLVESGGGLVQAGGSLRLSCAASGRTFPRYAMGWYRQAPGKERELVADISFSGDSTSYADSVKGRFTISRDNAKNTVYLQMNSLKPEDTAVYYCNADYKSTVFRYSGSRNYWGQGTQVTVSS | low polyreactivity
QVQLVESGGGLVQAGGSLRLSCAASGRTFPRYVMGWYRQAPGKERELVAAITSSGGSTYYADSVKGRFTISRDKAMNTVYLQMNSLKPEDTAVYYCAAFARPYSGQYAYRLDYWGQGTQVTVSS | high polyreactivity
QVQLVESGGGLVQAGGSLRLSCAASGRTFPVNAMGWYRQAPGKERELVATISWSGGSTYYADSVKGRFTISRDYAKNTVYLQMNSLKPEDTAVYYCAALGRHYRYDYWGQGTLVTVSS | low polyreactivity
QVQLVESGGGLVQAGGSLRLSCAASGRTFPYNAMGWYRQAPGKERELVAAITWSGGSTYYADSVKGRFTISRDNAKNTVYLQMNSLKPEDTAVYYCNKDFPVFEYDYWGQGTQVTVSS | low polyreactivity
QVQLVESGGGLVQAGGSLRLSCAASGRTFPYNAMGWYRQAPGKERELVAGITGGGSTYYADSVKGRFTISRDNAKKTVYLQMNSLKPEDTAVYYCAADRYFLYGTYPDVEFNYWGQGTQVTVSS | high polyreactivity
